Experimental data reported in paper PMC4323944 (Journal of molecular biology, 2014).

Tests used:
[1] = molecular target: T1, T. maritima FliM middle domain (FliMM, residues 46-242) (Thermotoga maritima, UniProt Q9WZE6 46-242); experiment: crystal structure
T1 sequence (looked up): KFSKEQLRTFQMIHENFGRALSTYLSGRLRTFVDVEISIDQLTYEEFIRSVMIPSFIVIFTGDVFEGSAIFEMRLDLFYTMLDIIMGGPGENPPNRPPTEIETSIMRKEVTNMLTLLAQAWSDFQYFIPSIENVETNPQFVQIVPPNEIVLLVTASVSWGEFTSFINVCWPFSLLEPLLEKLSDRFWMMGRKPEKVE

[2] = molecular target: the molecule itself; experiment: pulsed dipolar ESR spectroscopy
SEC-MALS = molecular target: the molecule itself; experiment: SEC-MALS

B1: T. maritima FliG middle domain (FliGM, residues 117-195) (domain or fragment, Thermotoga maritima, UniProt Q9WY63 117-195, looked up)
chain: VQLVNFLQSEHPQTIAVVLSYLDPPVAAQILGALPEELQTEVLKRIALLERTSPEVVKEIERNLEKKISGFVSRTFSKV
Does B1 bind [1]?
Result: binds

B2: FliG Q129W 160-R1 (FliGMC Q129W K160C, MTSSL spin-labeled) (domain or fragment, Thermotoga maritima, UniProt Q9WY63 116-335, looked up)
chain: PVQLVNFLQSEHPWTIAVVLSYLDPPVAAQILGALPEELQTEVLCRIALLERTSPEVVKEIERNLEKKISGFVSRTFSKVGGIDTAAEIMNNLDRTTEKKIMDKLVQENPELADEIRRRMFVFEDILKLDDRSIQLVLREVDTRDLALALKGASDELKEKIFKNMSKRAAALLKDELEYMGPVRLKDVEEAQQKIINIIRRLEEAGEIVIARGGGEELIM
modifications: nitroxide side chain R1 (MTSSL on Cys 160)
Does B2 bind [2]?
Result: binds

B3: FliG 160-R1 (FliGMC K160C, MTSSL spin-labeled) (domain or fragment, Thermotoga maritima, UniProt Q9WY63 116-335, looked up)
chain: PVQLVNFLQSEHPQTIAVVLSYLDPPVAAQILGALPEELQTEVLCRIALLERTSPEVVKEIERNLEKKISGFVSRTFSKVGGIDTAAEIMNNLDRTTEKKIMDKLVQENPELADEIRRRMFVFEDILKLDDRSIQLVLREVDTRDLALALKGASDELKEKIFKNMSKRAAALLKDELEYMGPVRLKDVEEAQQKIINIIRRLEEAGEIVIARGGGEELIM
modifications: nitroxide side chain R1 (MTSSL on Cys 160)
For B3, which “stoichiometry N” value (SEC-MALS) is on record?
The value was 2.

B4: FliG 174-R1 (FliGMC K174C, MTSSL spin-labeled) (domain or fragment, Thermotoga maritima, UniProt Q9WY63 116-335, looked up)
chain: PVQLVNFLQSEHPQTIAVVLSYLDPPVAAQILGALPEELQTEVLKRIALLERTSPEVVCEIERNLEKKISGFVSRTFSKVGGIDTAAEIMNNLDRTTEKKIMDKLVQENPELADEIRRRMFVFEDILKLDDRSIQLVLREVDTRDLALALKGASDELKEKIFKNMSKRAAALLKDELEYMGPVRLKDVEEAQQKIINIIRRLEEAGEIVIARGGGEELIM
modifications: nitroxide side chain R1 (MTSSL on Cys 174)
Does B4 bind [2]?
Result: binds
